# Measured values taken from PMC12288907 (JCI Insight, 2025).
# Substitutions are numbered along the chain they refer to.
# B1: recombinant H7-235 IgG1 (rH7-235 IgG1) (antibody, V domains shown)
# VH: QVQLVESGGGVVQPGESLRLSCAASGFAFRTYGMHWVRQAPGKGLEWVGVIWYDGSNKYYGDSVKGRFTISRDNSQNTLYLQMNSLRAEDTAVYYCARNGERWRVEDYYYGMDVWGQGTLVTVSS
# VL: EIVMTQSPLSLPVTPGEPASISCRSSQSLLHSNAHNYLDWYLQKPGQSPQLLIYLGSNRASGVPDRFSGSGSGTDFTLKISRVEAEDVGIYYCMQALQTPITFGQGTRLEIK
# notes: IgG1; also called rH7-235 mAb; mAb H7-235; copies: 2 + 2
# B2: rH7-235rev IgG1 (germline revertant form of rH7-235 IgG) (antibody, V domains shown)
# VH: B1 VH with E16R, A28T, R30S, T31S, G49A, G61A, Q76K
# VL: not shown
# B3: rH7-235 IgG1 (recombinant human monoclonal antibody H7-235) (antibody, V domains shown)
# VH: B1 VH
# VL: B1 VL
# notes: also called mAb H7-235; source: Expi293F, transient transfection, purified (MabSelect Sure)
# Experiments:
# [1] = target: recombinant soluble trimeric H3 HA of A/Hong Kong/1/1968 H3N2 (HK68 H3) (Influenza A virus A/Hong Kong/1/1968 …, UniProt Q91MA7); assay: ELISA; conditions: both partners purified
# Chain of recombinant soluble trimeric H3 HA of A/Hong Kong/1/1968 H3N2 (HK68 H3) (Q91MA7 17-530): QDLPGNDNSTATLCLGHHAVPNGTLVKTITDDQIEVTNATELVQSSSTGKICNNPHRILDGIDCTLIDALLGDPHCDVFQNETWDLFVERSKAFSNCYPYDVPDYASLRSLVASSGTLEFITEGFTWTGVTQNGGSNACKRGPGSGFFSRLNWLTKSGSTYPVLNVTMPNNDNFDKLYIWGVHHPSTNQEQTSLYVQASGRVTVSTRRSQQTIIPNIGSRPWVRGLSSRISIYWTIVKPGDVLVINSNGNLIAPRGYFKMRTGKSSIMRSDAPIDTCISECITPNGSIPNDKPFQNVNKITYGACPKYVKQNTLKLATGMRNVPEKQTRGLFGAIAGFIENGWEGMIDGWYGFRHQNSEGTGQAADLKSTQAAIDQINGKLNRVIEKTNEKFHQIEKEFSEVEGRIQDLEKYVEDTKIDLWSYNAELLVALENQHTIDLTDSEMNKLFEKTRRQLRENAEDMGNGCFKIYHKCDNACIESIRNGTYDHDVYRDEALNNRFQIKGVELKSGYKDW
# [2] = target: recombinant soluble trimeric H3 HA of A/Hong Kong/1/1968 H3N2 (Influenza A virus A/Hong Kong/1/1968 …, UniProt Q91MA7); assay: ELISA; conditions: both partners purified
# Chain of recombinant soluble trimeric H3 HA of A/Hong Kong/1/1968 H3N2 (Q91MA7 17-530): as above
Binder,binding result [1],binding result [2]
B1,no binding,
B2,,"no binding (tested: >10,000 ng/mL)"
B3,,"no binding (tested: >10,000 ng/mL)"
